Measured values: paper PMC6242696 (Cell, 2018)
Numbering of substitutions follows the chain as printed. Each block holds one binder with its values, some of them ahead of it.

Legend:
[1] = biological target: T1, GDP/GTP carrier Ggc1 (containing the mutation C222S), C-terminal 6xHis-tag (Saccharomyces cerevisiae, C222S (stands in the printed letters)); test: AUC + other: diffusion-ordered NMR
T1 chain: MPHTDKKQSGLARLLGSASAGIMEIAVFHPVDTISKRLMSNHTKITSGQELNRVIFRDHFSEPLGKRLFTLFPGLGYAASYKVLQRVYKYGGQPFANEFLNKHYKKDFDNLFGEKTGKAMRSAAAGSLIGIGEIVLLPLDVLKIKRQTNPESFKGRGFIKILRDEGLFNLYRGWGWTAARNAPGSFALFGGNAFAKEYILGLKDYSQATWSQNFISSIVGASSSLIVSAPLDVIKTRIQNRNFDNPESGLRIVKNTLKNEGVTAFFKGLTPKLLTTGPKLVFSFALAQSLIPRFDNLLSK

[2] = biological target: Aac3(2TM), comprising transmembrane helices 2 and 3 (residues 50-180), N-terminal 6xHis-Tag; test: AUC + other: diffusion-ordered NMR
[3] = biological target: T1, GDP/GTP carrier Ggc1 (containing the …); test: SAXS with online Ni-NTA purification
[4] = biological target: T2, Tim10 V29K (subunit of the mutant complex) (Saccharomyces cerevisiae, UniProt P87108 2-93, V29K); test: SEC
T2 sequence (looked up): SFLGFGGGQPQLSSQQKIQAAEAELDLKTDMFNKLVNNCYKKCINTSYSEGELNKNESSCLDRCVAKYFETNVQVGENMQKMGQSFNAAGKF

[5] = biological target: T3, Tim10 M32K (subunit of the mutant complex) (Saccharomyces cerevisiae, UniProt P87108 2-93, M32K); test: SEC
T3 sequence (looked up): T2 sequence (looked up) with K28V, M31K

SEC = biological target: the molecule itself; test: SEC

stoichiometry N [1]: 2 TIM9⋅10 hexamers per precursor protein
stoichiometry N [2]: 1 TIM9⋅10 hexamer per precursor chain
stoichiometry N [3]: 2 TIM9⋅10 hexamers per Ggc1
B1: TIM9⋅10 chaperone complex (hexamer of Tim9 and Tim10), wild type (complex, Saccharomyces cerevisiae)
chain 1: MDALNSKEQQEFQKVVEQKQMKDFMRLYSNLVERCFTDCVNDFTTSKLTNKEQTCIMKCSEKFLKHSERVGQRFQEQNAALGQGLGR
chain 2: GSFLGFGGGQPQLSSQQKIQAAEAELDLVTDMFNKLVNNCYKKCINTSYSEGELNKNESSCLDRCVAKYFETNVQVGENMQKMGQSFNAAGKF

binding result [4]: binds
binding result [5]: binds
B2: Tim9 (individual subunit) (natural protein, Saccharomyces cerevisiae)
chain: B1 chain 1
stoichiometry N (SEC): 2
